# B1: Cell division cycle-related protein res1/sct1 (Schizosaccharomyces pombe (strain ATCC 38366 / 972)), P33520 (parent)
# chain: MYNDQIHKITYSGVEVFEYTINGFPLMKRCHDNWLNATQILKIAELDKPRRTRILEKFAQKGLHEKIQGGCGKYQGTWVPSERAVELAHEYNVFDLIQPLIEYSGSAFMPMSTFTPQSNRKPTEAYRRNSPVKKSFSRPSHSLLYPYTSSNNMTSTSRMSGIHDALSLQSDFTRSPDMPSDSFTGSLHDIKASPFSSNNYAQSLLDYFLLPNTTQPPDFVYDRPSDWDVNAGIDEDGHTALHWAAAMGNLEMMHALLQAGANVVAVNYLQQTSLMRCVMFTMNYDLQTFEVVSELLQSAICMNDSFGQTVFHHIALLASSKSKMEAARYYMDILLQNLTATQSVDVAAQIINLQDDHGDTALLICARNGAKKCARLLLSFYASSSIPNNQGQYPTDFLSSKDMSFPENDDSPLNSKIEDNLIDNLKYPQSLDDHLSSKKPISYFSNKLTHQTLPNVFTQLSELSKCHEASLAEKQLTYNLAMEALEQTVRETETCQRLWNERTNNDENYLVNQREDLIHQCKKFLHTLKTARYYLETVQLHQLKKYVTYFSQIWSTDELADISETKNLVGHDTKTNRSSLSSKHEVDLFTAENEAAREKLVEQLCSLQAQRKQKINEILNLLSMGMYNTINTDQSGS
# partner: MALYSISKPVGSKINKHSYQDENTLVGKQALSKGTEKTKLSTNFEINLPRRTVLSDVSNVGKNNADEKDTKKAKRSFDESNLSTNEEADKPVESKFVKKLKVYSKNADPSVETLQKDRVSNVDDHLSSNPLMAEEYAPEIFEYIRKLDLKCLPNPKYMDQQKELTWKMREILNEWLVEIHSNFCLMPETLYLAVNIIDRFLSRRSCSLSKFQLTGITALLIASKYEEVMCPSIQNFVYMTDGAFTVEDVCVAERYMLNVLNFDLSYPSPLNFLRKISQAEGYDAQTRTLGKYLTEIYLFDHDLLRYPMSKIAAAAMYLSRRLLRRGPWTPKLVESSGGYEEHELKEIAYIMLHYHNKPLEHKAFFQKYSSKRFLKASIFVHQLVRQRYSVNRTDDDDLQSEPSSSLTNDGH
# Variants of: B1
# Settings: with cg22_schpo cig2, P36630
row,effect of a mutation on the interaction,Variant
1,increasing interaction,S130A

# Variants of: B1
# Settings: with cg22_schpo cig2, P36630
# Remark: another data set of the same source
row,effect of a mutation on the interaction,Variant
1,disrupting interaction,S130A

# — IntAct's records for PubMed 11781565
